Measurements from patent US20240200091A1, “USE OF PROTOPORPHYRINOGEN OXIDASE” (BEIJING DABEINONG BIOTECHNOLOGY CO., LTD., priority 2021, published 2024).

Legend:
Format in all cases: in vivo
[1] = tested on: Arabidopsis thaliana T1 plants; assay: oxyfluorfen tolerance of transgenic Arabidopsis thaliana T1 plants (spray, grade of pesticide damage); settings: 7 DAT, number of plants of 24 per genotype, grades
How it was run: (§1)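 T1 Arabidopsis (PPO constructs; glufosinate-selected) + vector and WT controls, n=24/genotype, d18 post-sowing. Spray 1×/higher field rate or water: saflufenacil 25/100, sulfentrazone 450/900, flumioxazin 60/240, oxyfluorfen 180/720 g ai/ha. Score 7 DAT, grades 0–3 by injured leaf area.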

[2] = tested on: Arabidopsis thaliana T1 plants; assay: saflufenacil tolerance of transgenic Arabidopsis thaliana T1 plants (spray, grade of pesticide damage); settings: 7 DAT, number of plants of 24 per genotype, grades
How it was run: as §1

[3] = tested on: Arabidopsis thaliana T1 plants; assay: flumioxazin tolerance of transgenic Arabidopsis thaliana T1 plants (spray, grade of pesticide damage); settings: 7 DAT, number of plants of 24 per genotype, grades
How it was run: as §1

[4] = tested on: Arabidopsis thaliana T1 plants; assay: sulfentrazone tolerance of transgenic Arabidopsis thaliana T1 plants (spray, grade of pesticide damage); settings: 7 DAT, number of plants of 24 per genotype, grades
How it was run: as §1

[5] = tested on: transgenic soybean plants; assay: saflufenacil tolerance of transgenic soybean plants (spray, grade of pesticide damage); design: key to damage levels rated at grade: grade 0 means that the growth status of plants is essentially consistent with those sprayed with the blank solvent (water); grade 1 means that the average of the damage levels of plants is less than 10%; grade 2 means that the average of the damage levels of plants is greater than 100%; grade 3 means that the average of the damage levels of plants is 100%; settings: for The grade of pesticide damage/plant: grade 0 / The grade of pesticide damage/plant: grade 1 / The grade of pesticide damage/plant: grade 2 / The grade of pesticide damage/plant: grade 3: 7 DAT, number of plants of 16 per genotype, grades
[6] = tested on: transgenic soybean plants; assay: oxyfluorfen tolerance of transgenic soybean plants (spray, grade of pesticide damage); settings: for The grade of pesticide damage/plant: grade 0 / The grade of pesticide damage/plant: grade 1 / The grade of pesticide damage/plant: grade 2 / The grade of pesticide damage/plant: grade 3: 7 DAT, number of plants of 16 per genotype, grades; for tolerance to oxyfluorfen: soybean
[7] = tested on: transgenic soybean plants; assay: flumioxazin tolerance of transgenic soybean plants (spray, grade of pesticide damage); settings: for The grade of pesticide damage/plant: grade 0 / The grade of pesticide damage/plant: grade 1 / The grade of pesticide damage/plant: grade 2 / The grade of pesticide damage/plant: grade 3: 7 DAT, number of plants of 16 per genotype, grades

B1: PPO6A: nucleotide sequence encoding microbial protoporphyrinogen oxidase PPO6 (SEQ ID NO:6), Arabidopsis thaliana/soybean common codon usage bias (nucleic acid)
DNA: ATGTCTTCTCCTAATGGGAAGTATTTGATGCTTTACAGTACCACCGACGGTCACACAAAAACCATTATGGATACAATGGCTAAACATATAATGGAAGAAGCAAAAGTACAATGTGATGTTGTGGACATGAGAGATGGAGACAAATACGAGTTAGCTGCTTATGAGAAGGTGATGCTAGGAGCTTCTATTAGATATGGATTCTTCAGCCGCACTCTTCATACATATACCACTCATCATGTTGATGAACTTAACTCAATGCCTTCCGCTTTCTTTGGAGTCAATCTCACTGCTCGTAAAACTTCAAAGAACACTGCAATGACTAATGCATACACAAGAAAGTTTCTGGATCAATCCATGTGGGTTCCTCAATTATCTGGCGTTTTTGCTGGTGCTTTGTGGTATCCTAGGTACAATTTCTTTGACAGGGTTATGATTCAGTTCATCATGAAGGTAACTGGTGGTGAAACAAACACAACGAAAGAGATAGTTTACACTGATTGGGATGCTGTTCACAAATTTGCAACAGATTTTGTGCAGCTACCAGCCACGGCGATACCCCGGAGCAAGCCGGCGACGTCGGTCCCACCAGCTAGTGTGGCCAACTATGATAATGGGGCACGAGTAGCGCTTGTGGTTGTGGGAATCTCAGCAGCCATCATCTTTGGCCGTCGATTGATTCTCGCAAAGAGATTCTGA
modifications: The nucleotide sequence of PPO6A
The grade of pesticide damage/plant: grade 0 ([1]; oxyfluorfen 180 g ai/ha (1×)): 24 plant | The grade of pesticide damage/plant: grade 1 ([1]; oxyfluorfen 180 g ai/ha (1×)): 0 plant | The grade of pesticide damage/plant: grade 2 ([1]; oxyfluorfen 180 g ai/ha (1×)): 0 plant | The grade of pesticide damage/plant: grade 3 ([1]; oxyfluorfen 180 g ai/ha (1×)): 0 plant | The grade of pesticide damage/plant: grade 0 ([1]; oxyfluorfen 720 g ai/ha (4×)): 20 plant | The grade of pesticide damage/plant: grade 1 ([1]; oxyfluorfen 720 g ai/ha (4×)): 4 plant | The grade of pesticide damage/plant: grade 2 ([1]; oxyfluorfen 720 g ai/ha (4×)): 0 plant | The grade of pesticide damage/plant: grade 3 ([1]; oxyfluorfen 720 g ai/ha (4×)): 0 plant | The grade of pesticide damage/plant: grade 0 ([2]; saflufenacil 25 g ai/ha (1×)): 24 plant | The grade of pesticide damage/plant: grade 1 ([2]; saflufenacil 25 g ai/ha (1×)): 0 plant | The grade of pesticide damage/plant: grade 2 ([2]; saflufenacil 25 g ai/ha (1×)): 0 plant | The grade of pesticide damage/plant: grade 3 ([2]; saflufenacil 25 g ai/ha (1×)): 0 plant | The grade of pesticide damage/plant: grade 0 ([2]; saflufenacil 100 g ai/ha (4×)): 2 plant | The grade of pesticide damage/plant: grade 1 ([2]; saflufenacil 100 g ai/ha (4×)): 22 plant | The grade of pesticide damage/plant: grade 2 ([2]; saflufenacil 100 g ai/ha (4×)): 0 plant | The grade of pesticide damage/plant: grade 3 ([2]; saflufenacil 100 g ai/ha (4×)): 0 plant | The grade of pesticide damage/plant: grade 0 ([3]; flumioxazin 60 g ai/ha (1×)): 24 plant | The grade of pesticide damage/plant: grade 1 ([3]; flumioxazin 60 g ai/ha (1×)): 0 plant | The grade of pesticide damage/plant: grade 2 ([3]; flumioxazin 60 g ai/ha (1×)): 0 plant | The grade of pesticide damage/plant: grade 3 ([3]; flumioxazin 60 g ai/ha (1×)): 0 plant | The grade of pesticide damage/plant: grade 0 ([3]; flumioxazin 240 g ai/ha (4×)): 22 plant | The grade of pesticide damage/plant: grade 1 ([3]; flumioxazin 240 g ai/ha (4×)): 2 plant | The grade of pesticide damage/plant: grade 2 ([3]; flumioxazin 240 g ai/ha (4×)): 0 plant | The grade of pesticide damage/plant: grade 3 ([3]; flumioxazin 240 g ai/ha (4×)): 0 plant | The grade of pesticide: grade 0 ([4]; sulfentrazone 450 g ai/ha (1×)): 24 | The grade of pesticide: grade 1 ([4]; sulfentrazone 450 g ai/ha (1×)): 0 | The grade of pesticide: grade 2 ([4]; sulfentrazone 450 g ai/ha (1×)): 0 | The grade of pesticide: grade 3 ([4]; sulfentrazone 450 g ai/ha (1×)): 0 | The grade of pesticide: grade 0 ([4]; sulfentrazone 900 g ai/ha (2×)): 20 | The grade of pesticide: grade 1 ([4]; sulfentrazone 900 g ai/ha (2×)): 4 | The grade of pesticide: grade 2 ([4]; sulfentrazone 900 g ai/ha (2×)): 0 | The grade of pesticide: grade 3 ([4]; sulfentrazone 900 g ai/ha (2×)): 0 | The grade of pesticide damage/plant: grade 0 ([5]; saflufenacil 50 g ai/ha (2×)): 16 plant | The grade of pesticide damage/plant: grade 1 ([5]; saflufenacil 50 g ai/ha (2×)): 0 plant | The grade of pesticide damage/plant: grade 2 ([5]; saflufenacil 50 g ai/ha (2×)): 0 plant | The grade of pesticide damage/plant: grade 3 ([5]; saflufenacil 50 g ai/ha (2×)): 0 plant | The grade of pesticide damage/plant: grade 0 ([5]; saflufenacil 100 g ai/ha (4×)): 16 plant | The grade of pesticide damage/plant: grade 1 ([5]; saflufenacil 100 g ai/ha (4×)): 0 plant | The grade of pesticide damage/plant: grade 2 ([5]; saflufenacil 100 g ai/ha (4×)): 0 plant | The grade of pesticide damage/plant: grade 3 ([5]; saflufenacil 100 g ai/ha (4×)): 0 plant | tolerance to saflufenacil ([5]; soybean, saflufenacil at four-fold field concentration (100 g ai/ha)): high-resistant tolerance | damage levels rated at grade ([5]; soybean, saflufenacil at two-fold field concentration (50 g ai/ha)): 0 | tolerance to saflufenacil ([5]; soybean, saflufenacil, compared with the control vector and CK): different extents of tolerance | The grade of pesticide damage/plant: grade 0 ([6]; oxyfluorfen 360 g ai/ha (2×)): 16 plant | The grade of pesticide damage/plant: grade 1 ([6]; oxyfluorfen 360 g ai/ha (2×)): 0 plant | The grade of pesticide damage/plant: grade 2 ([6]; oxyfluorfen 360 g ai/ha (2×)): 0 plant | The grade of pesticide damage/plant: grade 3 ([6]; oxyfluorfen 360 g ai/ha (2×)): 0 plant | The grade of pesticide damage/plant: grade 0 ([6]; oxyfluorfen 720 g ai/ha (4×)): 16 plant | The grade of pesticide damage/plant: grade 1 ([6]; oxyfluorfen 720 g ai/ha (4×)): 0 plant | The grade of pesticide damage/plant: grade 2 ([6]; oxyfluorfen 720 g ai/ha (4×)): 0 plant | The grade of pesticide damage/plant: grade 3 ([6]; oxyfluorfen 720 g ai/ha (4×)): 0 plant | tolerance to oxyfluorfen ([6]; oxyfluorfen at four-fold field concentration (720 g ai/ha)): high-resistant tolerance | tolerance to oxyfluorfen ([6]; oxyfluorfen at two-fold field concentration (360 g ai/ha)): high-resistant tolerance | The grade of pesticide damage/plant: grade 0 ([7]; flumioxazin 120 g ai/ha (2×)): 16 plant | The grade of pesticide damage/plant: grade 1 ([7]; flumioxazin 120 g ai/ha (2×)): 0 plant | The grade of pesticide damage/plant: grade 2 ([7]; flumioxazin 120 g ai/ha (2×)): 0 plant | The grade of pesticide damage/plant: grade 3 ([7]; flumioxazin 120 g ai/ha (2×)): 0 plant | The grade of pesticide damage/plant: grade 0 ([7]; flumioxazin 240 g ai/ha (4×)): 16 plant | The grade of pesticide damage/plant: grade 1 ([7]; flumioxazin 240 g ai/ha (4×)): 0 plant | The grade of pesticide damage/plant: grade 2 ([7]; flumioxazin 240 g ai/ha (4×)): 0 plant | The grade of pesticide damage/plant: grade 3 ([7]; flumioxazin 240 g ai/ha (4×)): 0 plant | tolerance to flumioxazin ([7]; soybean, flumioxazin at different concentrations (120 and 240 g ai/ha)): high-resistant tolerance
